For the experiment, the target named is CD38 (human) (UniProt P28907). Nature of the experiment: cell-based or functional assay.

Daratumumab-induced fratricide of expanded NK cells (1 µg/mL daratumumab, 4 h, PI flow cytometry) (times lower (g-NK vs cNK)) and g-NK cell-mediated cytotoxicity against daratumumab-treated MM cell lines, correlation with CD38 expression data for one substance are collected here from patent US20230190801A1.

Substance daratumumab (antibody) returned a daratumumab-induced fratricide of expanded NK cells (1 µg/mL daratumumab, 4 h, PI flow cytometry) (times lower (g-NK vs cNK)) of 13 and a g-NK cell-mediated cytotoxicity against daratumumab-treated MM cell lines, correlation with CD38 expression of 0.92 R^2.
